Assay results reported in PMC12637021, “Talin–tensin3 interactions regulate fibrillar adhesion formation and tensin3 phase separation” (The Journal of Cell Biology, 2025).

Columns and labels:
NIH3T3 cells [1] = assay: FRAP of GFP-TNS3 in adhesions; assay type: cell-based, mouse; conditions: vs TNS3-WT; 37°C; n = 27 (WT) and 26 (L702E) adhesions
Description: Transfected NIH3T3 cells were incubated in prewarmed DMEM medium at 37°C for 1 h to equilibrate prior to imaging. FRAP experiments were performed using a spinning disk confocal microscope as described above. Slidebook software (version 6.0.3, 3I) was used to set up the experiment. Regions of interest (ROIs) were manually adjusted to the shape of adhesion. A 488-nm laser was used at 100% power to bleach one to three adhesion ROIs per cell. Three prebleach images were acquired, followed by one image every 10 s for 3 min after bleach. Time-lapse images were analyzed using FIJI/ImageJ software ([Schindelin et al., 2012]) to obtain the intensity values of three control unbleached control ROIs and bleached ROIs over time. Values were background-subtracted, and measurements were corrected with the control values of the unbleached ROIs to compensate for any overall fluorescence loss. Intensity values were then normalized to the first postbleach value; normalized data were fitted to a one-phase association model Y=Y0+(Plateau-Y0)*(1-exp(-K*x)) using GraphPad Prism 10 software. Coefficients of the curve fit were extracted and transformed to generate the mobile fraction and halftime of recovery.

NIH3T3 cells [2] = assay: client protein recruitment to tensin3 condensates; assay type: cell-based, mouse; conditions: TNS3-L702E condensates
Text: Since the observed tensin3 condensates were derived from adhesion sites in a talin-regulated mechanosensitive manner, we wondered whether these condensates contain other adhesion components or signaling molecules. To address this question, we examined a selection of cell–matrix adhesion proteins that have been reported by others to be present in LLPS condensates. These proteins include LIMD1 ([Wang et al., 2021]), kindlin2 ([Hsu et al., 2023]), talin ([Hsu et al., 2023]; [Litschel et al., 2024]), KANK ([Guo et al., 2023]), tensin1 ([Lee et al., 2023]), vinculin ([Litschel et al., 2024]), and GIT1 ([Zhu et al., 2020]). We added the actin regulatory RhoGAP DLC1 to this selection, as it is known to bind tensin ([Liao et al., 2006]; [Shih et al., 2015]), and the RNA regulatory protein GIGYF1, which we had previously identified alongside many of the aforementioned proteins in tensin BioID datasets ([Atherton et al., 2022]). We also added stress granule components G3BP1 ([Tourrière et al., […]]) and TDP-43 ([Colombrita et al., 2009]). These proteins were either co-expressed as fluorescently tagged proteins (Fig. S4 I) or, where antibodies were available, probed endogenously in cells that formed GFP-TNS3 condensates (Fig. 8 A).
Cells were fixed in 4% paraformaldehyde (PFA, Sigma-Aldrich), which had been prewarmed to 37°C for 15 min before being washed three times with PBS. For immunofluorescence staining, cells were permeabilized with 0.5% Triton X-100 (Sigma-Aldrich) at room temperature for 5 min before being washed three times with PBS. Blebbistatin (Tocris Bioscience) was diluted in dimethyl sulfoxide (Sigma-Aldrich) and used at a final concentration of 50 μM. The following primary antibodies were diluted in 1% bovine serum albumin (BSA, Sigma-Aldrich): mouse anti-α5 integrin (SNAKA51, 1:100, NBP2-50146; Novus Biologicals), rat anti-β1 integrin (9EG7, 1:200; 553715; BD Biosciences), mouse anti-FN (IST-9, 1:100, ab6328; Abcam), rabbit anti-tensin3 (1:200, HPA055338; Atlas), mouse anti-EEA1 (1:500, 68065-1-IG; Proteintech), mouse anti-LAMP1 (1:200, ab320851; Abcam), mouse anti-paxillin (349, 1:400, mab3060; Sigma-Aldrich), rabbit anti-talin1 (1:200, 82856-4-RR; Proteintech), mouse anti-vinculin (hVin1, 1:500, V9264; Sigma-Aldrich), rabbit anti-KANK2 (1:100, HPA015643; Sigma-Aldrich), rabbit anti-kindlin2 (1:100, 11453-1-AP; Proteintech), rabbit anti-GIT1 (1:200, 26247-1-AP; Proteintech), mouse anti-phosphotyrosine (4G10, 1:200, 05-321X; Sigma-Aldrich), rabbit anti-G3BP1 (1:600, 13057-2-AP; Proteintech), rabbit anti-TDP43 (1:400, 10782-2-AP; Proteintech), and rabbit anti-GIGYF1 (1:400, ab121784; Abcam). […]

B1: TNS3-L702E: tensin3 carrying the L702E point mutation that blocks the interaction with talin (protein, UniProt Q68CZ2 1-1445, looked up, variant L702E)
Tensin-3: MEEGHGLDLTYITERIIAVSFPAGCSEESYLHNLQEVTRMLKSKHGDNYLVLNLSEKRYDLTKLNPKIMDVGWPELHAPPLDKMCTICKAQESWLNSNLQHVVVIHCRGGKGRIGVVISSYMHFTNVSASADQALDRFAMKKFYDDKVSALMQPSQKRYVQFLSGLLSGSVKMNASPLFLHFVILHGTPNFDTGGVCRPFLKLYQAMQPVYTSGIYNVGPENPSRICIVIEPAQLLKGDVMVKCYHKKYRSATRDVIFRLQFHTGAVQGYGLVFGKEDLDNASKDDRFPDYGKVELVFSATPEKIQGSEHLYNDHGVIVDYNTTDPLIRWDSYENLSADGEVLHTQGPVDGSLYAKVRKKSSSDPGIPGGPQAIPATNSPDHSDHTLSVSSDSGHSTASARTDKTEERLAPGTRRGLSAQEKAELDQLLSGFGLEDPGSSLKEMTDARSKYSGTRHVVPAQVHVNGDAALKDRETDILDDEMPHHDLHSVDSLGTLSSSEGPQSAHLGPFTCHKSSQNSLLSDGFGSNVGEDPQGTLVPDLGLGMDGPYERERTFGSREPKQPQPLLRKPSVSAQMQAYGQSSYSTQTWVRQQQMVVAHQYSFAPDGEARLVSRCPADNPGLVQAQPRVPLTPTRGTSSRVAVQRGVGSGPHPPDTQQPSPSKAFKPRFPGDQVVNGAGPELSTGPSPGSPTLDIDQSIEQENRLILELDPTFEPIPTHMNALGSQANGSVSPDSVGGGLRASSRLPDTGEGPSRATGRQGSSAEQPLGGRLRKLSLGQYDNDAGGQLPFSKCAWGKAGVDYAPNLPPFPSPADVKETMTPGYPQDLDIIDGRILSSKESMCSTPAFPVSPETPYVKTALRHPPFSPPEPPLSSPASQHKGGREPRSCPETLTHAVGMSESPIGPKSTMLRADASSTPSFQQAFASSCTISSNGPGQRRESSSSAERQWVESSPKPMVSLLGSGRPTGSPLSAEFSGTRKDSPVLSCFPPSELQAPFHSHELSLAEPPDSLAPPSSQAFLGFGTAPVGSGLPPEEDLGALLANSHGASPTPSIPLTATGAADNGFLSHNFLTVAPGHSSHHSPGLQGQGVTLPGQPPLPEKKRASEGDRSLGSVSPSSSGFSSPHSGSTISIPFPNVLPDFSKASEAASPLPDSPGDKLVIVKFVQDTSKFWYKADISREQAIAMLKDKEPGSFIVRDSHSFRGAYGLAMKVATPPPSVLQLNKKAGDLANELVRHFLIECTPKGVRLKGCSNEPYFGSLTALVCQHSITPLALPCKLLIPERDPLEEIAESSPQTAANSAAELLKQGAACNVWYLNSVEMESLTGHQAIQKALSITLVQEPPPVSTVVHFKVSAQGITLTDNQRKLFFRRHYPVNSVIFCALDPQDRKWIKDGPSSKVFGFVARKQGSATDNVCHLFAEHDPEQPASAIVNFVSKVMIGSPKKV
modifications: mCherry or GFP tag
NIH3T3 cells [1]
  halftime of recovery (FRAP): significantly higher
  mobile fraction (FRAP): significantly higher
NIH3T3 cells [2]
  localization of talin1/2, KANK1/2 and vinculin into condensates: failed to localize into the tensin3 condensates
  presence of tensin1, LIMD1, DLC1, and GIGYF1 in condensates: remained present
